This data set deals with the molecule itself. Put plainly: Tricine SDS-PAGE, non-reducing against reducing; purified C5-His deglycosylated with glycopeptidase F, 12% gel.

B1: N-terminal His-tagged C5 (C5-His) single domain of immunoglobulin new antigen receptor (IgNAR) (domain or fragment)
chain: PKVYLLHPSTDEIDTENSATLMCLATNFHPAEIYVGWMANDTLLDSGYRTQVDSEKGSGSSFVTDRLRLTAAEWNSDTTYSCLVGHPSLNRDLIRSTNKSNGKPSSVNVSVVLSDTVKSCT
As usually defined, the stoichiometry N is a count of units in the complex or per binding partner. Take B1: the “stoichiometry N” value was 2.
